Laboratory results taken from the nanobody polyreactivity screen of Harvey et al. (2022).

Assay: yeast display, Sf9 membrane polyspecificity reagent, FACS + sequencing; frameworks hold sequencing errors
Summary of the method: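 Polyreactivity labels are assigned by the sorting gate from which each nanobody was recovered. The gates were low and high (top ~1%), set on anti-HA fluorescence for expression and streptavidin fluorescence for reagent binding. Before sorting, galactose-induced (36–48 hours) yeast display cells were stained for 1 hour at 4 °C with 10% biotinylated, detergent-solubilized Sf9 membrane reagent.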

Sequence | polyreactivity (PSR sort gate)
QVQLVESGGGLVQAGGSLRLSCAASGSIFGWNAMGWYRQAPGKERELVAAITRRGDSTYYADSVKGRFTISRDNAKNTVYLQMNSLKPEDTAVYYCAKRGTGVYRVDYGYWGQGTQVTVSS | high polyreactivity
QVQLVESGGGLVQAGGSLRLSCAASGRTFRLYAMGWYRQAPGKERELVAAITRGGRTNYADSVKGRFTISRDNAKNTVYLQMYSLKPEDTAVYYCARDFVAYGDDYWGQGTQVTVSS | low polyreactivity
QVQLVESGGGLVQAGGSLRLSCAASGSPYQQYGMGWYRQAPGKERELVAAITFSDGNTYYADSVTGRFTISRDNAKNTVYLQMNSLKPEDTAVYYCNAGYSYGVSYAEGGYWGQGTQVTVSS | low polyreactivity
QVQLVESGGGLVQAGGSLRLSCAASGFTFGVYAMGWYRQAPGKERELVAAITSGGGRTYADSVKGRFTISRDNAKNTVYLQMNSLKPEDSAVYYCAAQQGISNGTGVSATNPMDYWGQGTQVTVSS | low polyreactivity
QVQHVESGGGLVQAGGSLRLSCAASGFTFWYYAMGWYRRATGKERELIASISSIGGSTYYADSVKGRYTISRDNAKNTVYLQMNSLKAEDTAVYYCAARYKFLRGGVRRDYWGQGTQVTVSS | high polyreactivity
QVQLVESGGGLVQAGGSLRLSCAASGSTFFDNAMGWYRQAPGKERELVAAISWSGARTYYADSVKGRFTISRDNAKNTVYLQMNSLKPEDTAVYYCAARFYVSNSRKSARNYWGQGTQVTVSS | high polyreactivity
QVQLVESVGGLVQAGASLRLSCAASGFTIDRYAMGWYIQAPAKERELVAAISGSGGRTYYADSVKGRFTISRDNAKNTVYLQMNSLKPEVTAVYYCAAVYLVTRGARYDYCGQGTQVTVSS | high polyreactivity
QVQLVDSGGRLVQAGGSLRLSCAASGRIFVNNAMRWYRQAPGKERELVAAITRGGSTYYADSVKGRFTLSRDNAKNTVYLQMNSLKPEDTAVYYCDSDYQRNDFRWYDYWGQGTHVTVSS | low polyreactivity
QVQLVESGGGLVQAGGSLRLSCAASGSIFSYYAMGGYRQAPGKARELVASISWNGTSTYYADSVKGRFTISRDNAKNTVYLQMNSLKPEDTAVYYCNVRFNYRGTYDYWGQGTQVTVSS | low polyreactivity
QVQLVESGGGLVQAGGSLRLSCAASGRIFYPYAMGWYRQAPGKERELVAAIRRSGVDTYYADSVKGRFTISRDNAKNTVYFQMNSLKPEDTAVYYCAADPYWFFPHYDSWGQGTQVTVSS | low polyreactivity
QVHLVESGGGLVQAGGSLRLSCAASGRIFYKNAMGWYRQAPGKERELVASITVGGGRTSYADSVKGRFTISRDNAKNTVYLQMNSLKPEDTAVFYCAATTGKTTFRATWYDYWGQCTQVTVSS | low polyreactivity
QVQLQESGGGLVQAGGSLRLSCAASCTISQEDWMGWYRQAPGKEREFVAAIGLGSNTNYADSLKGRFTISRDNAKNTVYLQMNSLKPEDTAVSYCAVSVWQYSDHVYRGQGTQVTVSS | low polyreactivity
QVQLVESGGGLVQAGGSLRLSCAASGSIFESNAMGWYRQAPGKEREFVAAIDWGDGSTSYADSVKGRFTISRDNAKNTVYLQMNSLKPEDTAVYYCAARSVFDLVYYNLIFDYWGQGTQVTVSS | high polyreactivity
QVQLVESGGGLVQAGGSLRLSCAASGSTFDSNAMGWYRQAPGKERELVAAIRFSGGSTNYADSVKGRFTISRDKAKNTVYLQINSLKPEDTAVYYCAARYPNLRSRWYYYWGQGPQVTVSS | high polyreactivity
QVQLVESGGGLVQAGGSLRLSCAASGFTFNFYVMGWYRQAPGKERELVAAITSNGGSTYYADSVKGRFTISRDNAKNTVYLQMNSLKPEDTAVYYCAADQYPTWSYLPFDYWGQGTQVTVSS | high polyreactivity
QVQLEESGGGLVQVGGSLRLSCAASGLTFRYYAMGWYRQAPGKERELVAAISGSGSTTYYADSVKGRFTISRDNAKNTVYLQMNSLKPEDTAVYYCNARRTGRVGGVVTHYYWGQGTQVTVSS | high polyreactivity
QVQLVESCGGLVQAGGSHRLSCDASGRIFTGYAMGWYRQAPGKERELVAAISWGGGRTYYADSVKGRFTISRDNAKNTVYLQMNSLKPEDTADYYCNRAAGGRSTPYYYWGQGTQVTVSS | high polyreactivity
QVQLVESGGGLVQAGGSLRLSCAASGSTFYSNVMGWYRQAPGKERELVAAISRSGGSTYYADSVKGRFTISRDNAKNTVYLQMNSLKPEDTAVYYCAAEREVGDAYDYWGQGTQVTVSS | high polyreactivity
QVQLVESGGGLVQAGGSLRLSCAASGRIFVSNAMGWYRQAHGKERELVAGITWTSGSTYYADSVKGRFTISRDNAKNTVYLLMNSLKPEDTAVYYCAAEYWYGNAFDYWGEGTQVTVSS | low polyreactivity
QVQLVESGGGLVQAGGSLRLICAASGFIFTYYGMGWYRQAPGKERELVAAITWSGASTYYADSVKGRFTISRDNAKNTVYLQMNSLKPEDTAVYYCNAGWDSGIVQSDETVYKYDYWGQGTQVTVSS | low polyreactivity
QVQLVESGGGLVQAGGSLRLSCAASGSIFPPNAMGWSRQAPGKERELVAAISFSGGTSTYYADSVKGRFTISRDNAKNTVYLQMNSLKPEDTAVYYCAARKTTRRYHYDYWGQGTQVTVSS | high polyreactivity
QVQLVESGGGLVQAGGSLRLSCAASGSIFPWYTMGWYRQAPGKERELVAAITSSGGGTYYADSVKGRFTISRDNAKNTVYLQMNSLKPEDTAVYYCAAGLDWGPEYEYWGQGTQVTVSS | low polyreactivity

Sequence | polyreactivity (PSR sort gate)
QVQLVESGGGLVQAGGSLRLSCAASGRTLSVNAMGWYRQAPGKERELVAAITWGGGSTYYADSVKGRFTISRDNAKNTVYLQMNSLKPEDTAVYYCNADPGWTELEYDYWGQGTQVTVSS | low polyreactivity
QVQLVESGVGLVQAGGSLRLSCAASGRIFRGYAMGWYRQAPGKEREFVAAISWSGGDTYYADSVKGRFTISRDNAKNTVYLQMNSLKAEDTAVYYFATEYRLIPGPFVWPYDYWGQGTQVTVSS | high polyreactivity
QVQLVESGGGLVQAGGSLRLSCAASGIIPSYAMGWYRQAPGKERELVAGISRSGGSTYYADSVKGRFTISRDNAKNTVYLQMNSLKPEDTAVYYCAARVKVRDFKGYYWGQGTQVTVSS | high polyreactivity
QDQLVESGGGLVQAGGSLRLSCAASGRTFTSNAMGRYRQAPGKERELVAAINFRGDSTYYADSVKGRFTISRDNAKNTVYLQMNSLKPEDSAVYYCAAVGGRSSYRLDYWGQGTQVTVSA | low polyreactivity
QVQLVESGGGLVQAGGSLRLSCAASGRTSREYAMGWYRQAPGKERELVAAISWNGGSTYYADSVKGRFTISRDNAMNTVYLQMNSLKPEDTAVYYCAARGKGYYRFGYWGQGTQVTVSS | high polyreactivity
QFQLVESGGGLVQAGGSLRLSCAASGSTLELNAMGWYIQAPGKERELVAAITSSGGRTYYADSVKGRFTISRDNAKNTVYLQMNSLKPEDTAVYYCAAEPGQHRVVDRYDYWGQGTQVTVSS | low polyreactivity
QVQLVESGGGLVQAGGSLRLSCAASGITFRNYARGWYRQAPGKERELVAAITTSGSRTYYEDSVKGRFTISRDNAKKTVYLQMNSLKPEDTAVYYCAAQQVPWQYYDFEYWGQGTQVTVSS | high polyreactivity
QVQLVESGGGLVQAGGSLRLSCAASGSILAVNAMGWYRQAPGKERELVAAISSRGGSTSYADSVKGRFTISRDNAKNTVYLQMNSLKPEDTAVYYCAVRAVRRLRTSVPVRFYYWGQGTQVTVSS | high polyreactivity
QVQLVESGGGLVQAGGSLRLSCAASGRIFATNAMGWYRQAPGKEMELVATITRSAGRTYYADSVKGRFTISRDNAKNTVYLQMNSLKPEDTAVYYCAASYWDTEPGYREYDYWGQGTQVTVSS | low polyreactivity
QVQLVESVGGLVQAGGSLRLSCAASGFNFPGYAMGWYRPAPGKERELVAAITGSGGRTYYADSVKGRFTISRDNAKNTVYLQMISLKPEDTAVYYCLARSYYNWYDYWGKGTQVTVSS | high polyreactivity
QVQLVESGGGLVQAGGSLRLSCAASGFTFAPYAMGWYRQAPGKERELVAAISSNGGSTYYADSVKGRFTISRDNAKNTVYLQMISMKPEYTAVYYCAVTSIGYTRYYYWGHGTQVTVSS | high polyreactivity
QVQLVESGGGLVQAGGSLRLSCAASGFIFASYAMGWYRQAPGKERELVAAISWRGGSTYYADSVKGRFTISRDNAKNTVYLQMNSLKPEDTAVYYCNAYVYVGTGRGYDTLDYWGQGTQVTVSS | low polyreactivity
QVQLVESGGGLVQAGGSLRLSCSASGSTFGYNAMGWYRQAPGKERELVAAILFSGGSTFYADSVKGRFTISRDNAKNTVYLQMNSLKQEDTAVYYCADYAGYYAYDSWGQGTQVTVSS | low polyreactivity
QVQLVESGGRLVQAGGSLRLICAASGRIFKQYAMGWYRQSPGKERELVARITGSGSRTYYADSVKGRFTISRDNAKITVYIQMKSLKPEDTAVYYCAKDRYYGKRGGAWYDYWGQGTQVTVSS | low polyreactivity
QVQLVESGGGLVQAGGSLRLSCAASGITLFGYAMGWYRQAPGKERELVAGISRRGGSTYYADSVKGRFTISRDNAKNTVYLQMNSLKPEDTAVYYCAAVYVQPPATAQHYYYWGQGTQVTVSS | high polyreactivity
QVQLVESGGGLDQAGGSLRLSCAASGFTFYWYAMGWYRQAPGKEREFVAAIDQSGGSTYYADSVKGRFTISRDNAKNNVYLQMNSLKPEDTAVYYCAKLYNIGYDYWGLGTQVTVSS | low polyreactivity
QVQLVESGGGLVQAGGSLRLSCAASGIIFARNTMGWYRQAPGKERELVAAITSSGGNTYYADSVKGRFTISRDNAKNTVYLQKNSLKPEDTAVYYCAAYSRTLYPDRYYWGQGTQVTVSS | high polyreactivity
QVQLVESGGGLVQAGGSLRLSCAASGRIFKINAMGWYRQAPGKERELVAAITRSGGTTYYADSVKGRFTISRDNAKNTVYLQMNSLKPEDTAVDYCARAYSLRVVTGDYWGQGTQVTVSS | high polyreactivity
QVQLVESGGGLVQAGGSLRLSCASSGTFHKYAMGWYRQAPGKERELVASISRSGGSTSYADSVKGRFTISRDNAKNNVYLQMNSLKPEDTAVYYCNTPWGAYKYDYWGQGTEVTVSS | high polyreactivity
QVQLLESGGGLVQARGSLRLSCAASGITFSRYAMGWYRQAPGKERELVAAITRRGGNTYYADSVKGSFTISRVYAKNTVYLQMNSLKPEDTAVYYCAAGYTYYRGDYWGQGTQVTVSS | high polyreactivity
QVQLVESVVGLVQARVSLRLSCASSGFIFRFYTMGWYIQPPGKESEFVPAISWSGTSTYYADSVKGRFTISRDNAKNTVYLQMNSLKPEDTAVYYCAAGYKWKGTVWIMDYWGQGTQVTVSS | high polyreactivity
